{"source": "patent US20180155451A1", "about": "(published 2018)", "binders": {"B1": {"name": "GpH7-A5/GpH7-B3 variant G237_11K/GpL16-k0 (antibody, human IgG1, kappa)", "heavy 1": "not shown", "heavy 2": "not shown", "light": "DIVMTQSPLSLPVTPGEPASISCQASESLVHSNRNTYLHWYLQKPGQSPQLLIYKVSNRFSGVPDRFSGSGSGTDFTLKISRVEAEDVGVYYCSQNTHVPPTFGQGTKVEIERTVAAPSVFIFPPSDEQLKSGTASVVCLLNNFYPREAKVQWKVDNALQSGNSQESVTEQDSKDSTYSLSSTLTLSKADYEKHKVYACEVTHQGLSSPVTKSFNRGEC", "notes": "Heterodimerized anti-glypican-3 IgG1; substitution in only one H chain; also called G237K; He Ab"}, "B2": {"name": "GpH7-A5/GpH7-B3 variant G237_16H/GpL16-k0 (antibody, human IgG1, kappa)", "heavy 1": "not shown", "heavy 2": "not shown", "light": "B1 light", "notes": "Heterodimerized anti-glypican-3 IgG1; substitution in only one H chain; also called G237H; He Ab"}, "B3": {"name": "GpH7-A5/GpH7-B3 variant S239_11K/GpL16-k0 (antibody, human IgG1, kappa)", "heavy 1": "not shown", "heavy 2": "not shown", "light": "B1 light", "notes": "Heterodimerized anti-glypican-3 IgG1; substitution in only one H chain; also called S239K; He Ab"}, "B4": {"name": "GpH7-A5/GpH7-B3 variant P238_11K/GpL16-k0 (antibody, human IgG1, kappa)", "heavy 1": "not shown", "heavy 2": "not shown", "light": "B1 light", "notes": "Heterodimerized anti-glypican-3 IgG1; substitution in only one H chain; also called P238K; He Ab"}, "B5": {"name": "GpH7-A5/GpH7-B3 variant P238_14T/GpL16-k0 (antibody, human IgG1, kappa)", "heavy 1": "not shown", "heavy 2": "not shown", "light": "B1 light", "notes": "Heterodimerized anti-glypican-3 IgG1; substitution in only one H chain; also called P238T; He Ab"}, "B6": {"name": "GpH7-A5/GpH7-B3 variant S239_04F/GpL16-k0 (antibody, human IgG1, kappa)", "heavy 1": "not shown", "heavy 2": "not shown", "light": "B1 light", "notes": "Heterodimerized anti-glypican-3 IgG1; substitution in only one H chain; also called S239F; He Ab"}, "B7": {"name": "GpH7-A5/GpH7-B3 variant P238_02A/GpL16-k0 (antibody, human IgG1, kappa)", "heavy 1": "not shown", "heavy 2": "not shown", "light": "B1 light", "notes": "Heterodimerized anti-glypican-3 IgG1; substitution in only one H chain; also called P238A; He Ab"}, "B8": {"name": "GpH7-A5/GpH7-B3 variant P238_18N/GpL16-k0 (antibody, human IgG1, kappa)", "heavy 1": "not shown", "heavy 2": "not shown", "light": "B1 light", "notes": "Heterodimerized anti-glypican-3 IgG1; substitution in only one H chain; also called P238N; He Ab"}, "B9": {"name": "GpH7-A5/GpH7-B3 variant P238_01G/GpL16-k0 (antibody, human IgG1, kappa)", "heavy 1": "not shown", "heavy 2": "not shown", "light": "B1 light", "notes": "Heterodimerized anti-glypican-3 IgG1; substitution in only one H chain; also called P238G; He Ab"}, "B10": {"name": "GpH7-A5/GpH7-B3 variant P238_07I/GpL16-k0 (antibody, human IgG1, kappa)", "heavy 1": "not shown", "heavy 2": "not shown", "light": "B1 light", "notes": "Heterodimerized anti-glypican-3 IgG1; substitution in only one H chain; also called P238I; He Ab"}, "B11": {"name": "GpH7-A5/GpH7-B3 variant G237_14T/GpL16-k0 (antibody, human IgG1, kappa)", "heavy 1": "not shown", "heavy 2": "not shown", "light": "B1 light", "notes": "Heterodimerized anti-glypican-3 IgG1; substitution in only one H chain; also called G237T; He Ab"}}}
{"molecular_target": "T1, FcγRIa extracellular domain with C-terminal His tag (human, UniProt P12314 16-292)", "T1 construct": "extracellular domain; Soluble receptor expressed in FreeStyle293 cells, used as analyte in Biacore; also called FcgRI; CD64; not shown: His tag at the C terminus", "T1 sequence (P12314 16-292)": "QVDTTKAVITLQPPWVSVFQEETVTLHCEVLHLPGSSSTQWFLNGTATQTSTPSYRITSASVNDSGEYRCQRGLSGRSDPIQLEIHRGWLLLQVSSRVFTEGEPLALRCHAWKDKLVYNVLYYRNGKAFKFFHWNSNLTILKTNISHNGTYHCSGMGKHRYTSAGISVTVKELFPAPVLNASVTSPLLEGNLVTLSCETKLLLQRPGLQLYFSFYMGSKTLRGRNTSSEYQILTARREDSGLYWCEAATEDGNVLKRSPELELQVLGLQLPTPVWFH", "test": "SPR (Biacore); ratio of He/Con_1a (FcγRIa) to He/Con_2b (FcγRIIb) of the same antibody"}
{"binder": "B1", "Ia/IIb He_1a/2b": 7.05}
{"binder": "B2", "Ia/IIb He_1a/2b": 1.32}
{"binder": "B3", "Ia/IIb He_1a/2b": 2.75}
{"binder": "B4", "Ia/IIb He_1a/2b": 4.27}
{"binder": "B5", "Ia/IIb He_1a/2b": 1.8}
{"binder": "B6", "Ia/IIb He_1a/2b": 2.13}
{"binder": "B7", "Ia/IIb He_1a/2b": 1.66}
{"binder": "B8", "Ia/IIb He_1a/2b": 1.27}
{"binder": "B9", "Ia/IIb He_1a/2b": 1.66}
{"binder": "B10", "Ia/IIb He_1a/2b": 1.24}
{"binder": "B11", "Ia/IIb He_1a/2b": 1.5}
{"molecular_target": "T2, FcγRIIb extracellular domain with C-terminal His tag (human, UniProt P31994 43-217)", "T2 construct": "extracellular domain; Soluble receptor expressed in FreeStyle293 cells, used as analyte in Biacore; also called FcgRIIb; CD32B; not shown: His tag at the C terminus", "T2 sequence (looked up)": "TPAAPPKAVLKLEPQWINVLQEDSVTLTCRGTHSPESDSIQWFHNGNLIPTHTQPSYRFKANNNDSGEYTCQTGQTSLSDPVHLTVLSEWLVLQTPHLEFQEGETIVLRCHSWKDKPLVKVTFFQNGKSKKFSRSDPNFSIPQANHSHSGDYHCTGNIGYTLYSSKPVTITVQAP", "test": "SPR (Biacore), antibody captured via antigen peptide, FcγR as analyte; binding relative to GpH7-A5/GpH7-B3/GpL16-k0 = 100"}
{"binder": "B2", "He/Con_2b": "55.2 % of control (GpH7-A5/GpH7-B3/GpL16-k0 = 100)"}
{"binder": "B3", "He/Con_2b": "24.7 % of control (GpH7-A5/GpH7-B3/GpL16-k0 = 100)"}
{"binder": "B4", "He/Con_2b": "18.1 % of control (GpH7-A5/GpH7-B3/GpL16-k0 = 100)"}
{"binder": "B5", "He/Con_2b": "50.7 % of control (GpH7-A5/GpH7-B3/GpL16-k0 = 100)"}
{"binder": "B6", "He/Con_2b": "44.1 % of control (GpH7-A5/GpH7-B3/GpL16-k0 = 100)"}
{"binder": "B7", "He/Con_2b": "57.4 % of control (GpH7-A5/GpH7-B3/GpL16-k0 = 100)"}
{"binder": "B8", "He/Con_2b": "73.2 % of control (GpH7-A5/GpH7-B3/GpL16-k0 = 100)"}
{"binder": "B9", "He/Con_2b": "56 % of control (GpH7-A5/GpH7-B3/GpL16-k0 = 100)"}
{"binder": "B10", "He/Con_2b": "80 % of control (GpH7-A5/GpH7-B3/GpL16-k0 = 100)"}
{"binder": "B11", "He/Con_2b": "54.8 % of control (GpH7-A5/GpH7-B3/GpL16-k0 = 100)"}
{"molecular_target": "T1, FcγRIa extracellular domain with …", "test": "SPR (Biacore), antibody captured via antigen peptide, FcγR as analyte; binding relative to GpH7-A5/GpH7-B3/GpL16-k0 = 100"}
{"binder": "B1", "He/Con_1a": "63.3 % of control (GpH7-A5/GpH7-B3/GpL16-k0 = 100)"}
{"binder": "B2", "He/Con_1a": "72.6 % of control (GpH7-A5/GpH7-B3/GpL16-k0 = 100)"}
{"binder": "B3", "He/Con_1a": "68 % of control (GpH7-A5/GpH7-B3/GpL16-k0 = 100)"}
{"binder": "B4", "He/Con_1a": "77.4 % of control (GpH7-A5/GpH7-B3/GpL16-k0 = 100)"}
{"binder": "B5", "He/Con_1a": "91.1 % of control (GpH7-A5/GpH7-B3/GpL16-k0 = 100)"}
{"binder": "B6", "He/Con_1a": "93.8 % of control (GpH7-A5/GpH7-B3/GpL16-k0 = 100)"}
{"binder": "B7", "He/Con_1a": "95.2 % of control (GpH7-A5/GpH7-B3/GpL16-k0 = 100)"}
{"binder": "B8", "He/Con_1a": "93.3 % of control (GpH7-A5/GpH7-B3/GpL16-k0 = 100)"}
{"binder": "B9", "He/Con_1a": "92.9 % of control (GpH7-A5/GpH7-B3/GpL16-k0 = 100)"}
{"binder": "B10", "He/Con_1a": "99.1 % of control (GpH7-A5/GpH7-B3/GpL16-k0 = 100)"}
{"binder": "B11", "He/Con_1a": "82.3 % of control (GpH7-A5/GpH7-B3/GpL16-k0 = 100)"}
